Paper PMC10065799, “High-throughput profiling of sequence recognition by tyrosine kinases and SH2 domains using bacterial peptide display” (eLife, 2023)

Biological target: human c-Src kinase domain (residues 260-528) (human) (UniProt P12931)

## Ac-GPDECIYDMFPFKKKG-NH2 [Src Consensus peptide Ac-…-NH2]
  KM (μM) of phosphorylation, Michaelis-Menten analysis, ADP-Quest assay: 196 µM
